The results in this text go back to patent US20230255948A1.

Assay [1] deals with α4β1 integrin on mouse B16 melanoma cells and mouse RAW macrophage cells (mouse) (UniProt Q00651). Kind of assay: cell-based or functional assay.
In assay [2] the target is α9β1 integrin on mouse RAW macrophage cells (mouse) (UniProt B8JK39). Kind of assay: cell-based or functional assay.
Chain of α9β1 integrin on mouse RAW macrophage cells (mouse) (B8JK39 29-1036, chain 1 of 2): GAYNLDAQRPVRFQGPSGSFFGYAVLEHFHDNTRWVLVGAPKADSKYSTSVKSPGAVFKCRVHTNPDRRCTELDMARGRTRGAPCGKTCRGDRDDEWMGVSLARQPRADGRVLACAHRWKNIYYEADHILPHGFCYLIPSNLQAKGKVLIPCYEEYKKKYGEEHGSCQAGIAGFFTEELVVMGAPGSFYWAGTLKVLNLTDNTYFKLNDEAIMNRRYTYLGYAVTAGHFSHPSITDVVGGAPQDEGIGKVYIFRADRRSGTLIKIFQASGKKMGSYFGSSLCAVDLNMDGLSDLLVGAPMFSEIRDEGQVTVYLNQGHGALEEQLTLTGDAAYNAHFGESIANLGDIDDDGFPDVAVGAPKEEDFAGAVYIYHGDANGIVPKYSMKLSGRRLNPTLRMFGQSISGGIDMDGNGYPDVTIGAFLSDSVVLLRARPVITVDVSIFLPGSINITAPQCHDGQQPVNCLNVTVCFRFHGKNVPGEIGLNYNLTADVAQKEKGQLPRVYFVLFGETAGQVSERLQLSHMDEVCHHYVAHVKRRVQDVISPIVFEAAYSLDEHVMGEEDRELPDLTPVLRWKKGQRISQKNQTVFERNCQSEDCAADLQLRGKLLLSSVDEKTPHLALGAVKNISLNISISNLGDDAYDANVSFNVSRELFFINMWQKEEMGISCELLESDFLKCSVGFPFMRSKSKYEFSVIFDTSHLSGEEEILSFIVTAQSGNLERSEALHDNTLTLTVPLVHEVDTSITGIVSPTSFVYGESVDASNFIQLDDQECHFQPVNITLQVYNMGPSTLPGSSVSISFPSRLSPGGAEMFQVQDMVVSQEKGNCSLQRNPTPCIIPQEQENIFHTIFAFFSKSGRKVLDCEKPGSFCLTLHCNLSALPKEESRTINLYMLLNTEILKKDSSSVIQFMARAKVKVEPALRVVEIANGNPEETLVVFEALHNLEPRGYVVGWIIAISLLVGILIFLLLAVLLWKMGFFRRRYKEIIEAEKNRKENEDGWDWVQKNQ
Chain of α9β1 integrin on mouse RAW macrophage cells (mouse) (P09055 21-798, chain 2 of 2, further chain): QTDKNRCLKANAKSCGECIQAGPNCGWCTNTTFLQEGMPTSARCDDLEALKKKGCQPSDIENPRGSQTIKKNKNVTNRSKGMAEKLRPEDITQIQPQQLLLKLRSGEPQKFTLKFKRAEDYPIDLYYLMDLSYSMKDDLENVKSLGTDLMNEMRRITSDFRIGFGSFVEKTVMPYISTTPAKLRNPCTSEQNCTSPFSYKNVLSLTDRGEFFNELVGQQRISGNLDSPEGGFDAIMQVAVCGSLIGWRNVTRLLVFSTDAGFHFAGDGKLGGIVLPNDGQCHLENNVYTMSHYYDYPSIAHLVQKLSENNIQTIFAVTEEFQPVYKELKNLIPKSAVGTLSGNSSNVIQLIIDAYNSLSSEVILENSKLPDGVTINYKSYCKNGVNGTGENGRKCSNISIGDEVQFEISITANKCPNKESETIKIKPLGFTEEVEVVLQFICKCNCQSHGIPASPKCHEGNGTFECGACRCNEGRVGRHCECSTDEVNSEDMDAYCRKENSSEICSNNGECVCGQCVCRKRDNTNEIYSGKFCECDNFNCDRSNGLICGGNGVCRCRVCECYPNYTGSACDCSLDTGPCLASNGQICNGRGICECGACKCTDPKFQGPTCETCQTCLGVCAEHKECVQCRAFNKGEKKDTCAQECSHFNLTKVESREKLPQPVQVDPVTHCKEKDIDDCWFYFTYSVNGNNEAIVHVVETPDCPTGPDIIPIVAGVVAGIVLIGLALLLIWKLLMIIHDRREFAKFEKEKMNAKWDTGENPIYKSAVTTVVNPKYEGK

Chain of α4β1 integrin on mouse B16 melanoma cells and mouse RAW macrophage cells (mouse) (Q00651 41-1039, chain 1 of 2): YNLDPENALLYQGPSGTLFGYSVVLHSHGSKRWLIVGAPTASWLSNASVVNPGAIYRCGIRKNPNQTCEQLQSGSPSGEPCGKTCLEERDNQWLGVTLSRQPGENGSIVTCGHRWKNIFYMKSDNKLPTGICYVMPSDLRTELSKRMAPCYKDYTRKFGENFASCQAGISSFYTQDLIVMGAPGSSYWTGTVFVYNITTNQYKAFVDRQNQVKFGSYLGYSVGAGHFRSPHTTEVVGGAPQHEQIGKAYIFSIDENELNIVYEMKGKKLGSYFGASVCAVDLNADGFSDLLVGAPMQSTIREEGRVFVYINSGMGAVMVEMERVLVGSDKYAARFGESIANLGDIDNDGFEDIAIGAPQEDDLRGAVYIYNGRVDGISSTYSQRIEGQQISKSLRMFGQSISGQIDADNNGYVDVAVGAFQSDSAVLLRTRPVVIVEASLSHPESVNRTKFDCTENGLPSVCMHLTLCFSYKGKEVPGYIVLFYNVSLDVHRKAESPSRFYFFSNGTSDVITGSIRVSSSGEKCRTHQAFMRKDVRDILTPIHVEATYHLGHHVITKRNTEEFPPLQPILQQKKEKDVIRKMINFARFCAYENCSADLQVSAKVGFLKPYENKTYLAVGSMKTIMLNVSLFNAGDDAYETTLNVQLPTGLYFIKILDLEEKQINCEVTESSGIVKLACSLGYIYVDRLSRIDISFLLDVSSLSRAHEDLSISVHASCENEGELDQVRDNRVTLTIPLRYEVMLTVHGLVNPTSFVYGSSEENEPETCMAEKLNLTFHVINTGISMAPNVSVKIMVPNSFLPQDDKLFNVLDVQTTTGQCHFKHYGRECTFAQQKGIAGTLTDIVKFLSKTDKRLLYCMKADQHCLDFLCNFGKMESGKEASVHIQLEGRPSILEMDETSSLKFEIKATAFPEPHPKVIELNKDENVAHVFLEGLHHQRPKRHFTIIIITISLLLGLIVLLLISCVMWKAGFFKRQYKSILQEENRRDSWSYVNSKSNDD
Chain of α4β1 integrin on mouse B16 melanoma cells and mouse RAW macrophage cells (mouse) (P09055 21-798, chain 2 of 2, further chain): as the sequence (P09055 21-798, chain 2 of 2, further chain) above

Turning to “OPN-RRAA (OPN-R in which the RGD sequence has been mutated to RAA) (ligand)”, the PGE2 secretion in RAW cells in assay [1] and in assay [2] was 4.2 fold in each case.
